Measurements published in patent US20220025008A1 (FAPON BIOTECH, published 2022).

What follows are binders tested against T1, Recombinant NT antigen (N-terminal pro-brain natriuretic peptide, NT-proBNP) (human, UniProt P16860 27-102) (assay: indirect ELISA, KD calculated from half-max OD at 4 coating concentrations).
T1 construct: domain: N-terminal pro-brain natriuretic peptide (NT-proBNP); also called recombinant NT protein; N-terminal pro-B-type natriuretic peptide
T1 sequence (looked up): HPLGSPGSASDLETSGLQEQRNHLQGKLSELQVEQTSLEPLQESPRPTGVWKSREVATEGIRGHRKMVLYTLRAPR
Method: Recombinant NT antigen was diluted with coating solution to 1 μg/ml a microplate overnight at 4° C.; which was washed twice with washing solution and patted dry on the next day; with addition of blocking solution (20% BSA+80% PBS) at 120 μL per well at 37° C. for 1 h and patted dry; added the diluted NT monoclonal antibody, 100 μL/well at 37° C. for 30 min (partial supernatant for 1 h); washed 5 times with washing solution and patted dry; added rabbit anti-goat IgG-HRP […] per well at 37° C. for 30 min; washed 5 times with washing solution and patted dry; added color developing solution A (50 μL/well), added color developing solution B (50 μL/well) for 10 min; added stop solution, 50 μL/well; followed by reading the OD value at 450 nm (reference 630 nm) on the microplate reader.
Data from the enzyme immunoassay indirect method were analyzed in the same way as the activity identification, with four gradients of 3 μg/ml, 1.5 μg/ml, 0.75 μg/ml and 0.375 μg/ml for coating; the antibody was diluted from 1000 ng/ml by 2 times to 0.977 ng/ml for loading sample. OD values corresponding to different antibody concentrations at different coating concentrations were obtained. Under the same coating concentration, data were plotted logarithmically with the antibody concentration as the abscissa and the OD value as the ordinate.

Binder	Kd [nM]
Mutation 1-39 (antibody) heavy: QVRLQESGPSQVKPAQTLSLTCAISGFSLTTYYIDWVRHTPGKPPEWLAQMTKDGNAVHNPTLRSRLSITRDTSKSQVFLKLTGVTTEDTAVYYCVRGLIDFGPGLLVTVSSASTTPPKVYPLTSCCGDTSSSIVTLGCLVSSYMPEPVTVTWNSGALTSGVHTFPAILQSSGLYSLSSVVTVPASTSGAQTFICNVAHPASSTKVDKRVEPGCPDPCKHCRCPPPELPGGPSVFIFPPKPKDTLTISGTPEVTCVVVDVGQDDPEVQFSWFVDNVEVRTARTKPREEQFNSTFRVVSALPIQHQDWTGGKEFKCKVHNEGLPAPIVRTISRTKGQAREPQVYVLAPPQEELSKSTLSVTCLVTGFYPDYIAVEWQKNGQPESEDKYGTTTSQLDADGSYFLYSRLRVDKNSWQEGDTYACVVMHEALHNHYTQKSISKPPGK light: QAVLTQPSSVSRSLGQTVSITCSGSSDNVGFGDYVNWFQLIPGSAPKTLIFGAYSRIRGVPDRFSGSRSGNTATLTINSLQAEDEADYYCGSGNSRNYVFGSGTRLTVLSQPKSAPSVTLFPPSKEELDTNKATVVCLISDFYPGSVNVVWKADGSTINQNVKTTQASKQSNSKYAASSYLTLTGSEWKSKSSYTCEVTHEGSTVTKTVKPSECS	2.45
Mutation 1-49 (antibody) heavy: QVRLQESGPSQVKPAQTLSLTCAISGFSLTTYYLDWVRHTPGKPPEWLAQMTKDGNAVHNPTIRSRLSITRDTSKSQVFLKLTGVTTEDTAVYYCVRGIIDFGPGLLVTVSSASTTPPKVYPLTSCCGDTSSSIVTLGCLVSSYMPEPVTVTWNSGALTSGVHTFPAILQSSGLYSLSSVVTVPASTSGAQTFICNVAHPASSTKVDKRVEPGCPDPCKHCRCPPPELPGGPSVFIFPPKPKDTLTISGTPEVTCVVVDVGQDDPEVQFSWFVDNVEVRTARTKPREEQFNSTFRVVSALPIQHQDWTGGKEFKCKVHNEGLPAPIVRTISRTKGQAREPQVYVLAPPQEELSKSTLSVTCLVTGFYPDYIAVEWQKNGQPESEDKYGTTTSQLDADGSYFLYSRLRVDKNSWQEGDTYACVVMHEALHNHYTQKSISKPPGK light: QAVLTQPSSVSRSLGQTVSITCSGSSDQVGFGDYLNWFQLIPGSAPKTLIFGATSRLRGVPDRFSGSRSGNTATLTINSLQAEDEADYYCGSPNSRNYVFGSGTRLTVLSQPKSAPSVTLFPPSKEELDTNKATVVCLISDFYPGSVNVVWKADGSTINQNVKTTQASKQSNSKYAASSYLTLTGSEWKSKSSYTCEVTHEGSTVTKTVKPSECS	6.83
Mutation 1-2 (antibody, V domains shown) VH: QVRLQESGPSQVKPAQTLSLTCAISGFSITTYYVDWVRHTPGKPPEWLAQMTKDGNAVHQPTLRSRLSITRDTSKSQVFLKLTGVTTEDTAVYYCVRGLIDWGPGLLVTVSS VL: QAVLTQPSSVSRSLGQTVSITCSGSSDQVGFGDYINWFQLIPGSAPKTLIFGATSRVRGVPDRFSGSRSGNTATLTINSLQAEDEADYYCGSANSRGGYVFGSGTRLTVLS	2.61
WT 1-9 (antibody, V domains shown) VH: QVRLQESGPSQVKPAQTLSLTCAISGPSVTTYYIDWVRHTPGKPPEWLAQMTKDANAVHQPTLRSRLSITRDTSKSQVFLKLTGVTTEDTAVYYCVKGLIDWGPGLLVTVSS V domain: QAVLTQPSSVSRSLGQTVSITCSGSSDNVGPGDYVNWFQLIPGSAPKTLIFAAYSRLRGVPDRFSGSRSGNTATLTINSLQAEDEADYYCGSGNSRGGYVWGSGTRLTVLS	2.47
Mutation 1-16 (antibody, V domains shown) VH: QVRLQESGPSQVKPAQTLSLTCAISGFSVTTYYLDWVRHTPGKPPEWLAQMTKDGNAVHQPTVRSRLSITRDTSKSQVFLKLTGVTTEDTAVYYCVRGVIDWGPGLLVTVSS VL: QAVLTQPSSVSRSLGQTVSITCSGSSDNVGFGDYLNWFQLIPGSAPKTLIFGATSRLRGVPDRFSGSRSGNTATLTINSLQAEDEADYYCGSGNSRGGYVFGSGTRLTVLS	3.27
Mutation 1-12 (antibody, V domains shown) VH: QVRLQESGPSQVKPAQTLSLTCAISGFSLTTYYIDWVRHTPGKPPEWLAQMTKDGNAVHQPTIRSRLSITRDTSKSQVFLKLTGVTTEDTAVYYCVRGIIDWGPGLLVTVSS VL: QAVLTQPSSVSRSLGQTVSITCSGSSDQVGFGDYVNWFQLIPGSAPKTLIFGAYSRIRGVPDRFSGSRSGNTATLTINSLQAEDEADYYCGSPNSRGGYVFGSGTRLTVLS	2.75
Mutation 1-14 (antibody, V domains shown) VH: QVRLQESGPSQVKPAQTLSLTCAISGFSLTTYYVDWVRHTPGKPPEWLAQMTKDGNAVHQPTLRSRLSITRDTSKSQVFLKLTGVTTEDTAVYYCVRGLIDWGPGLLVTVSS VL: QAVLTQPSSVSRSLGQTVSITCSGSSDQVGFGDYINWFQLIPGSAPKTLIFGAYSRVRGVPDRFSGSRSGNTATLTINSLQAEDEADYYCGSANSRGGYVFGSGTRLTVLS	0.875
Mutation 1-4 (antibody, V domains shown) VH: QVRLQESGPSQVKPAQTLSLTCAISGFSLTTYYLDWVRHTPGKPPEWLAQMTKDGNAVHQPTVRSRLSITRDTSKSQVFLKLTGVTTEDTAVYYCVRGVIDWGPGLLVTVSS VL: QAVLTQPSSVSRSLGQTVSITCSGSSDNVGFGDYLNWFQLIPGSAPKTLIFGAYSRLRGVPDRFSGSRSGNTATLTINSLQAEDEADYYCGSGNSRGGYVFGSGTRLTVLS	2.07

Next, values leading:

Kd [nM]	Binder
0.944	Mutation 1-51 (antibody) heavy: QVRLQESGPSQVKPAQTLSLTCAISGFSVTTYYIDWVRHTPGKPPEWLAQMTKDGNAVHNPTLRSRLSITRDTSKSQVFLKLTGVTTEDTAVYYCVRGLIDFGPGLLVTVSSASTTPPKVYPLTSCCGDTSSSIVTLGCLVSSYMPEPVTVTWNSGALTSGVHTFPAILQSSGLYSLSSVVTVPASTSGAQTFICNVAHPASSTKVDKRVEPGCPDPCKHCRCPPPELPGGPSVFIFPPKPKDTLTISGTPEVTCVVVDVGQDDPEVQFSWFVDNVEVRTARTKPREEQFNSTFRVVSALPIQHQDWTGGKEFKCKVHNEGLPAPIVRTISRTKGQAREPQVYVLAPPQEELSKSTLSVTCLVTGFYPDYIAVEWQKNGQPESEDKYGTTTSQLDADGSYFLYSRLRVDKNSWQEGDTYACVVMHEALHNHYTQKSISKPPGK light: QAVLTQPSSVSRSLGQTVSITCSGSSDNVGFGDYVNWFQLIPGSAPKTLIFGAYSRIRGVPDRFSGSRSGNTATLTINSLQAEDEADYYCGSANSRNYVFGSGTRLTVLSQPKSAPSVTLFPPSKEELDTNKATVVCLISDFYPGSVNVVWKADGSTINQNVKTTQASKQSNSKYAASSYLTLTGSEWKSKSSYTCEVTHEGSTVTKTVKPSECS
17.8	WT 1-1 (antibody, V domains shown) VH: QVRLQESGPSQVKPAQTLSLTCAISGPSVTTYYIDWVRHTPGKPPEWLAQMTKDANAVHNPTIRSRLSITRDTSKSQVFLKLTGVTTEDTAVYYCVKGVIDWGPGLLVTVSS V domain: QAVLTQPSSVSRSLGQTVSITCSGSSDNVGPGDYINWFQLIPGSAPKTLIFAAYSRIRGVPDRFSGSRSGNTATLTINSLQAEDEADYYCGSANSRNYVWGSGTRLTVLS
3.48	WT 1-2 (antibody, V domains shown) VH: QVRLQESGPSQVKPAQTLSLTCAISGPSLTTYYIDWVRHTPGKPPEWLAQMTKDANAVHQPTLRSRLSITRDTSKSQVFLKLTGVTTEDTAVYYCVKGVIDWGPGLLVTVSS V domain: QAVLTQPSSVSRSLGQTVSITCSGSSDNVGPGDYLNWFQLIPGSAPKTLIFAASSRIRGVPDRFSGSRSGNTATLTINSLQAEDEADYYCGSPNSRNYVWGSGTRLTVLS
4.78	WT 1-8 (antibody, V domains shown) VH: QVRLQESGPSQVKPAQTLSLTCAISGPSLTTYYVDWVRHTPGKPPEWLAQMTKDANAVHQPTVRSRLSITRDTSKSQVFLKLTGVTTEDTAVYYCVKGIIDWGPGLLVTVSS V domain: QAVLTQPSSVSRSLGQTVSITCSGSSDNVGPGDYINWFQLIPGSAPKTLIFAAYSRVRGVPDRFSGSRSGNTATLTINSLQAEDEADYYCGSPNSRNYVWGSGTRLTVLS
2.53	WT 1-3 (antibody) heavy: QVRLQESGPSQVKPAQTLSLTCAISGPSITTYYLDWVRHTPGKPPEWLAQMTKDANAVHQPTIRSRLSITRDTSKSQVFLKLTGVTTEDTAVYYCVKGLIDFGPGLLVTVSSASTTPPKVYPLTSCCGDTSSSIVTLGCLVSSYMPEPVTVTWNSGALTSGVHTFPAILQSSGLYSLSSVVTVPASTSGAQTFICNVAHPASSTKVDKRVEPGCPDPCKHCRCPPPELPGGPSVFIFPPKPKDTLTISGTPEVTCVVVDVGQDDPEVQFSWFVDNVEVRTARTKPREEQFNSTFRVVSALPIQHQDWTGGKEFKCKVHNEGLPAPIVRTISRTKGQAREPQVYVLAPPQEELSKSTLSVTCLVTGFYPDYIAVEWQKNGQPESEDKYGTTTSQLDADGSYFLYSRLRVDKNSWQEGDTYACVVMHEALHNHYTQKSISKPPGK light: QAVLTQPSSVSRSLGQTVSITCSGSSDNVGPGDYVNWFQLIPGSAPKTLIFAATSRIRGVPDRFSGSRSGNTATLTINSLQAEDEADYYCGSANSRNYVWGSGTRLTVLSQPKSAPSVTLFPPSKEELDTNKATVVCLISDFYPGSVNVVWKADGSTINQNVKTTQASKQSNSKYAASSYLTLTGSEWKSKSSYTCEVTHEGSTVTKTVKPSECS
